Patent US20160228506A1, “Compositions and Formulations for Prevention and Reduction of Tumorigenesis, Cancer Cell Proliferation and Invasion, and Methods of Production and Use Thereof in Cancer Treatment” (PRONUTRIA, INC., priority 2013, published 2016)

B1: SEQID-00533: protein of the 168 nutritive polypeptide library (protein)
chain: MVTEFQTRDLADVIRRPIVTEKATIQMELNQFTFDVDPRADKPTIKAAVELLFPVKVLSVNTQNPPRRQRRVGRFVGYKPRYKRAIVTLEDGEALRKVLFPEV
modifications: Arthrospira platensis NIES-39
notes: protein of the 168 nutritive polypeptide library
B2: SEQID-00509: protein of the 168 nutritive polypeptide library (protein, listed as Gadus morhua)
chain: MSDTEDVDQVEDEKPKFKPSAPKIPDGEKVDFDDIQKKRQNKDLSELQGLIDAHFEGRKKEEEELIALKERIEKRRAERAEQQRIRSEKDKERQARREEERLKREEADAKKKMEEDAKKKSALSNMGSNYSSHLQKADQKRGGGKKETEREKKKKILAARRKGLNIDHLNEDKLKDKINELHEWMSTLESEKFDHMERLNRQKYEVTTLRKRVEELSKFSKKGKTVRRK
B3: SEQID-00495: protein of the 168 nutritive polypeptide library (protein, listed as Vitis vinifera)
chain: MEKNVESDPNPPLASGPEFPPATTPADVKNDVALEKSVVPPPEVKADESKALAVVEKTPDSAAKKTSGGSFERDVALANLEKEKQLSFIRAWEESEKSKVDNKAQKKLSDVCAWENSKKAAVEANLKKIEEELEKKKAEYAEKMKNKVALIHKQAEEKKAMIEARRGEEFLKAEEMAAKFRATGQTPKKVLGCFGG
B4: SEQID-00518: protein of the 168 nutritive polypeptide library (protein, listed as Lactobacillus acidophilus)
chain: MTKGILGRKVGMTQIFTKDGVLVPVTVVEATPNVVMQVKTVESDGYEAVQLGYQDKREVLSNKPEKGHADKAKTSPKRFIREIRGVELKDYEVGSEVTVDTFKEGDVVNVTGTSRGHGYQGNIKRWGQSRGPETHGSRYHRIPGSMGSIINRVPKGKRLPGHMGVKKVTIENLVIEKVVADKNVLMIKGNVPGAKNSLIVVKTASKAVKADK
modifications: source: /note="strain 30SC"
notes: as for B1
B5: SEQID-00529: protein of the 168 nutritive polypeptide library (protein)
chain: MLGYISAGKMGSSPSGARFFKYEVVGMRQNDETDKTEYQIRSSGSQFVIVPYNRMNQEMRRINRMGGKIVSIEPMTTDNTVSEAEGE
modifications: Arthrospira platensis Sp-1
notes: as for B1
B6: SEQID-00525: protein of the 168 nutritive polypeptide library (protein, listed as Saccharomyces cerevisiae)
chain: MTKNFIVTLKKNTPDVEAKKFLDSVHHAGGSIVHEFDIIKGYTIKVPDVLHLNKLKEKHNDVIENVEEDKEVHT
modifications: source: /note="strain ATCC 204508 / S288c"
notes: as for B1
B7: SEQID-00524: protein of the 168 nutritive polypeptide library (protein)
chain: MPAWYSIDSRVRGTSLVVKGLKENVEYHFRVSAENQFGISKPMKSEEPVIPKTPLSKASSNHNTVNFLS
modifications: Ovis aries
notes: as for B1
B8: SEQID-00484: protein of the 168 nutritive polypeptide library (protein, listed as Saccharomyces cerevisiae)
chain: MSEKFPPLEDQNIDFTPNDKKDDDTDFLKREAEILGDEFKTEQDDILETEASPAKDDDEIRDFEEQFPDINSANGAVSSDQNGSATVSSGNDNGEADDDFSTFEGANQSTESVKEDRSEVVDQWKQRRAVEIHEKDLKDEELKKELQDEAIKHIDDFYDSYNKKKEQQLEDAAKEAEAFLKKRDEFFGQDNTTWDRALQLINQDDADIIGGRDRSKLKEILLRLKGNAKAPGA
modifications: source: /note="strain ATCC 204508 / S288c"
notes: as for B1
B9: SEQID-00507: protein of the 168 nutritive polypeptide library (protein, listed as Agaricus bisporus)
chain: MISFYDLTAKPPFKTVSVNSWKIRYALNFKNLPYKTLYFEFPDMAKEFSKVGIPPSSVSADGPSYTVPSLIDDSTNTRISESFTIALYLDKQYPDAPKLFPAGTEALQAAFHEEFYKVMSPTFPFFFPKAGNVLNKPSDDYFAVTRAKMFGMSMADFEPKGEARVEAWKKVKDAFDTLESWMSKTSGPFFMGETVSFADFVIGGLLNEFSMCMGENSPEWQDVLKWNNGRWATLKKKLEVYANTDQ
modifications: source: /note="var. bisporus"; source: /note="strain H97 / ATCC MYA-4626 / FGSC 10389"
notes: as for B1
B10: SEQID-00528: protein of the 168 nutritive polypeptide library (protein, listed as Saccharomyces cerevisiae)
chain: MVLVQDLLHPTAASEARKHKLKTLVQGPRSYFLDVKCPGCLNITTVFSHAQTAVTCESCSTVLCTPTGGKAKLSEGTSFRRK
modifications: source: /note="strain ATCC 204508 / S288c"
notes: as for B1
B11: SEQID-00520: protein of the 168 nutritive polypeptide library (protein, listed as Gallus gallus)
chain: MSDEEKKRRAATARRQHLKSAMLQLAVTEIEKEAAAKEVEKQNYLAEHCPPLSLPGSMQELQELCKKLHAKIDSVDEERYDTEVKLQKTNKELEDLSQKLFDLRGKFKRPPLRRVRMSADAMLRALLGSKHKVNMDLRANLKQVKKEDTEKEKDLRDVGDWRKNIEEKSGMEGRKKMFEAGES
B12: SEQID-00497: protein of the 168 nutritive polypeptide library (protein, listed as Saccharomyces cerevisiae)
chain: MSIASYAQELKLALHQYPNFPSEGILFEDFLPIFRNPGLFQKLIDAFKLHLEEAFPEVKIDYIVGLESRGFLFGPTLALALGVGFVPVRKAGKLPGECFKATYEKEYGSDLFEIQKNAIPAGSNVIIVDDIIATGGSAAAAGELVEQLEANLLEYNFVMELDFLKGRSKLNAPVFTLLNAQKEALKK
modifications: source: /note="strain ATCC 204508 / S288c"
notes: as for B1
B13: SEQID-00515: protein of the 168 nutritive polypeptide library (protein, listed as Saccharomyces cerevisiae)
chain: MSNLLNKFADKLHGNDHDERYEDDNDDQTRQQRHEKHQQREFRNQGSKADPYGEENQGNFPQRQQPQSNLGGNTQFGGNDFQQQTTDYTAGTGGGTYTQTYRETNTQGQLDDDEDDDFLTSGQQQKQGRTRGAQSNRYQSSNIGSGRRDLSGSGNDEYDDDSGNQGVW
modifications: source: /note="strain ATCC 204508 / S288c"
notes: as for B1
B14: SEQID-00521: protein of the 168 nutritive polypeptide library (protein, listed as Arthrospira platensis)
chain: MQDAITSVINSSDVQGKYLDASAIQKLKAYFATGELRVRAATTISANAANIVKEAVAKSLLYSDITRPGGNMYTTRRYAACIRDLDYYLRYATYAMLAGDPSILDERVLNGLKETYNSLGVPIGATVQAIQAMKEVTAGLVGADAGKEMGIYFDYICSGLS
B15: SEQID-00489: protein of the 168 nutritive polypeptide library (protein, listed as Saccharomyces cerevisiae)
chain: MSVEEVSKKFEENVSVDDTTATPKTVLSDSAHFDVKHPLNTKWTLWYTKPAVDKSESWSDLLRPVTSFQTVEEFWAIIQNIPEPHELPLKSDYHVFRNDVRPEWEDEANAKGGKWSFQLRGKGADIDELWLRTLLAVIGETIDEDDSQINGVVLSIRKGGNKFALWTKSEDKEPLLRIGGKFKQVLKLTDDGHLEFFPHSSANGRHPQPSITL
modifications: source: /note="strain ATCC 204508 / S288c"
notes: as for B1
B16: SEQID-00532: protein of the 168 nutritive polypeptide library (protein)
chain: MSIAVGMIETIGFPAVVEAADSMVKAARVTLVGYEKIGSGRVTVIVRGDVSEVQASVSAGIESVKRVNGGEVSSTHIIARPHENLEYVLPIRYTDAVEQFRSY
modifications: Arthrospira platensis NIES-39
notes: as for B1
B17: SEQID-00534: protein of the 168 nutritive polypeptide library (protein)
chain: MSIYVGNLSYEVTEDDLTAVFAEYGSVKRVKLPTDRETGRMRGFGFVEMDTEAEEQSAIDALDGAEWCGRDLRVNKAKPRENSGSFGGGGGGRRGGGGYSRRS
modifications: Arthrospira platensis NIES-39
notes: as for B1

Experiment: SGF digest of 168 nutritive polypeptide library, intact protein by LC-MS/MS
Assay type: in vitro ADME
Conditions: 168 nutritive polypeptide library SGF digest, LC-MS/MS spectral counts
Method: The in vitro intact half-life of multiple polypeptides in a complex mixture was determined using the simulated gastric in vitro digestion described above. Briefly, the 168 nutritive polypeptide library was generated as described herein by cloning, transforming, and expressing a gene library encoding 168 proteins as a single mixture. The recombinantly expressed proteins were purified from host cell proteins by IMAC purification as described herein.
The 168 Protein Library was treated with SGF as described above and the t=0 and t=10 min samples were analyzed for intact protein by LC-MS/MS. To begin, 10 μg of sample was loaded onto a 10% SDS-PAGE gel (Invitrogen) and run approximately 5 cm into the gel. The gel was excised into ten fractions from 100 kD to the dye front and the gel slices were processed by washing with 25 mM ammonium bicarbonate, followed by acetonitrile. Gel fractions were then reduced with 10 mM dithiothreitol at 60° C., followed by alkylation with 50 mM iodoacetamide at room temperature. Finally, the samples were digested with trypsin (Promega) at 37° C. for 4 h and the digestions were quenched with the addition of formic acid. The samples were then analyzed by nano LC/MS/MS using an EasynLC 1000 HPLC system interfaced to a ThermoFisher Q Exactive. Peptides were loaded on a trapping column and eluted over a 75 μm analytical column at 350 nL/min; both columns were packed with PepMap C18 3 μm resin (ThemoFisher). A 1 hour gradient was employed. The mass spectrometer was operated in data-dependent mode, with MS and MS/MS performed in the Orbitrap at 70,000 FWHM resolution and 17,500 FWHM resolution, respectively. The fifteen most abundant ions were selected for MS/MS. Data were searched against an appropriate database using Mascot to identify peptides. Mascot DAT files were parsed into the Scaffold software for validation, filtering and to create a nonredundant list per sample. Data were filtered at 1% protein and peptide false discovery rate (FDR) and requiring at least two unique peptides per protein. A full list of detected proteins and their spectral counts (SpC) was generated and reported as a function of each collected gel fraction. SpC are a count of the number of spectra identified for a given protein and are used as a measure of relative protein abundance (Liu, H. et al., Analytical Chemistry 2004, 76: 4193-4201). To calculate the percentage of intact protein remaining at the 10 min time point of the SGF digest the number of SpC representative of intact peptide in the t=10 min sample were divided by the number of SpC representative of intact peptide in the t=0 min sample. The number of SpC representative of intact peptide was defined as the sum of the SpC in the fraction with the highest number of SpC assigned to that protein in the t=0 min sample and the two flanking fractions.
In the case of B1, the “% Intact Protein at 10 min” value is reported as 19%. In the case of B2, the “% Intact Protein at 10 min” value is reported as 36.4%. For B3, the “% Intact Protein at 10 min” value was 0%. For B4, the “% Intact Protein at 10 min” value was 0%. With B5 the “% Intact Protein at 10 min” value was 0%. In the case of B6, the “% Intact Protein at 10 min” value is reported as 13.7%. In the case of B7, the “% Intact Protein at 10 min” value is reported as 0%. For B8, the “% Intact Protein at 10 min” value was 0%. With B9 the “% Intact Protein at 10 min” value was 0%. For B10, the “% Intact Protein at 10 min” value was 11.8%. In the case of B11, the “% Intact Protein at 10 min” value is reported as 0%. In the case of B12, the “% Intact Protein at 10 min” value is reported as 20.3%. In the case of B13, the “% Intact Protein at 10 min” value is reported as 17%. In the case of B14, the “% Intact Protein at 10 min” value is reported as 11.5%. For B15, the “% Intact Protein at 10 min” value was 0%. In the case of B16, the “% Intact Protein at 10 min” value is reported as 0%. With B17 the “% Intact Protein at 10 min” value was 0%.
